The values that follow come from PMC6589570 (Molecular Biology of the Cell, 2019).

This test deals with T1, cytosolic domain of SEC12 (PREB), his-tagged (UniProt Q9HCU5 1-388).
T1 sequence (looked up): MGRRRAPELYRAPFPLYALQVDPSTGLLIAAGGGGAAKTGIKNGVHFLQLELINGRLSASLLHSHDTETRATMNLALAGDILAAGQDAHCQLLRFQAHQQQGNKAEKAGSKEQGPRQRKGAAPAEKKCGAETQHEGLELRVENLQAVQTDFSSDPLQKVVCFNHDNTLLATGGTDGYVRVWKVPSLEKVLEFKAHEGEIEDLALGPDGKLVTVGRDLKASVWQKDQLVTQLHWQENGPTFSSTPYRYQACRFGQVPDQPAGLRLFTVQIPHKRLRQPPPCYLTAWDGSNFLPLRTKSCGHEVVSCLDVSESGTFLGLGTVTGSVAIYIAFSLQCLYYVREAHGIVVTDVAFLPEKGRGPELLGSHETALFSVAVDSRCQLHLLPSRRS
As to the kind of experiment: liposome flotation.

B1: fatty-acid binding protein 5 (FABP5), rat (natural protein, UniProt P55053 1-135, looked up)
chain: MASLKDLEGKWRLVESHGFEDYMKELGVGLALRKMGAMAKPDCIITLDGNNLTVKTESTVKTTVFSCTLGEKFDETTADGRKTETVCTFTDGALVQHQKWEGKESTITRKLKDGKMVVECVMNNAICTRVYEKVQ
Turning to B1, the “fold recruitment to liposomes with SEC12 against without SEC12” value is approximately 3.5 fold.
